Laboratory results as given in IntAct's records for PubMed 22212508.

What was measured:
[1] = target: q3umu9-3, Q3UMU9-3
[2] = target: hdgr2_mouse Hdgfl2 (UniProt Q3UMU9)
[3] = target: q3umu9-1, Q3UMU9-1
Sequence of q3umu9-1, Q3UMU9-1 (Q3UMU9 whole entry): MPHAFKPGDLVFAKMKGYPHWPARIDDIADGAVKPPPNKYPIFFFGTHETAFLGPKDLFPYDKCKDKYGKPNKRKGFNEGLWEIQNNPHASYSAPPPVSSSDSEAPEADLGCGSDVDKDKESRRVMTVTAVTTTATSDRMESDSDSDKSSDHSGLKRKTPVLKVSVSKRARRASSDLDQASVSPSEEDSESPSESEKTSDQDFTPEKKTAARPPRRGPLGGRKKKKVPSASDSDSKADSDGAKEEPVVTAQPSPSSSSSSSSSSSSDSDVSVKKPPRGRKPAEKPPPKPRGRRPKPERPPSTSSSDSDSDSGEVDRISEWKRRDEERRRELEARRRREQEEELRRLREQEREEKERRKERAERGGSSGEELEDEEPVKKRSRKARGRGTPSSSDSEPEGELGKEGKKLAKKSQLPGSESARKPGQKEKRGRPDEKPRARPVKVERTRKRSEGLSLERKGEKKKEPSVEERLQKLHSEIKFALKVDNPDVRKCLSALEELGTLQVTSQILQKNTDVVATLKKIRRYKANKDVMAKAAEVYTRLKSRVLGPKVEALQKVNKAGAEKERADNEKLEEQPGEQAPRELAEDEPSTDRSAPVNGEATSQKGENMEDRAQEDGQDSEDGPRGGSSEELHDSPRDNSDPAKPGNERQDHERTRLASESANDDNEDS

Sequence of Hepatoma-derived growth factor (Mus musculus), P51859 S165A (P51859 whole entry S165A): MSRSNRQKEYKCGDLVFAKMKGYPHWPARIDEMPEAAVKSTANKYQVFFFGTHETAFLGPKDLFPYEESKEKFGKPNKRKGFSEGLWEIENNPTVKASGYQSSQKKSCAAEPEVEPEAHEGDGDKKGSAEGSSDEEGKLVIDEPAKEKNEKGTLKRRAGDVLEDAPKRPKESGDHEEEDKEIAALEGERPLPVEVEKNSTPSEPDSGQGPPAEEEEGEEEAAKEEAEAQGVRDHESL
Sequence of hdgr2_mouse Hdgfl2 (Q3UMU9 whole entry): as the sequence (Q3UMU9 whole entry) above
Sequence of q3umu9-3, Q3UMU9-3 (Q3UMU9 other isoform, or with tags, fused parts or gaps): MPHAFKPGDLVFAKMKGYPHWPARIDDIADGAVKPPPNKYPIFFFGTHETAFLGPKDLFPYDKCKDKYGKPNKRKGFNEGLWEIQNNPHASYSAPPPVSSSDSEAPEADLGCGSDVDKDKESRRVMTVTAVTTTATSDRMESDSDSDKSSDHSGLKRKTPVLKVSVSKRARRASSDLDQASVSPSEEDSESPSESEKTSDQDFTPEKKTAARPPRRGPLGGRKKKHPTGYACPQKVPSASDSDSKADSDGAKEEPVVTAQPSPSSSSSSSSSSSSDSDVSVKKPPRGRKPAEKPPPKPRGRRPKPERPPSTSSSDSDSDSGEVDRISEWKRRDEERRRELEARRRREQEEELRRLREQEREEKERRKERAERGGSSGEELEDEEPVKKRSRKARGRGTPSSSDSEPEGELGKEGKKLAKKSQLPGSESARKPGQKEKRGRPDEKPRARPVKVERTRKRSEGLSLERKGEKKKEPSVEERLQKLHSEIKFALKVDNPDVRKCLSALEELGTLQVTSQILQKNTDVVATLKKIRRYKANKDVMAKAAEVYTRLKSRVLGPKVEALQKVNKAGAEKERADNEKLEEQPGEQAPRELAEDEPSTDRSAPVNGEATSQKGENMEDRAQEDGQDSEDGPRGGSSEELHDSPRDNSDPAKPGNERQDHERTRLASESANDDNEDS

effect of a mutation on the interaction [1]: increasing interaction
effect of a mutation on the interaction [2]: increasing interaction
effect of a mutation on the interaction [3]: increasing interaction
Substance: Hepatoma-derived growth factor (Mus musculus), P51859 S165A
